Laboratory results published in patent US20190010227A1 (WELSON PHARMACEUTICALS, published 2019).
Where a chain is given by its changes, count along the chain named.

B1: Mouse monoclonal antibody LA22 (antibody, V domains shown)
VH: EVQLVESGGGLVQPGESLKLSCESNEYEFPSHDMSWVRKTPEERLELVAAITSDGISTYYPDTMERRFLISRDNTKKTLYLQMSSLRSEDTALYYCSRHDWDEGFASWGQGTLVTVSA
VL: DVVMTQTPLSLPVSLGDQASISCRSSQSLVHSNGNTYLHWYLQKPGQSPKLLIYKVSNRFSGVPDRFSGSGSGTDFTLKISRVEAEDLGIYFCSQSSHVPPAFGGGTKLEIK
notes: Mouse hybridoma antibody (ATCC deposit, US 5,459,061); the mouse constant regions are not; also called mLA22; mouse LA22
B2: Humanized LA22 (H1 + h2) (antibody, human IgG1, V domains shown)
VH: EVQLVESGGGLVQPGGSLRLSCESNEYEFPSHDMSWVRQAPGKGLEWVSAITSDGISTYYPDTMERRFTISRDNSKNTLYLQMNSLRAEDTAVYYCARHDWDEGFASWGQGTLVTVSS
VL: B1 VL with T7S, S14T, D17Q, Q18P, L42Q, K44R, K50R, L88V
notes: Human IgG1 / kappa constant regions; also called H1-LA22 / h2-LA22
B3: Humanized LA22 (H0 + h2) (antibody, human IgG1, V domains shown)
VH: B2 VH with E23A, S24A, N25S
VL: B1 VL with T7S, S14T, D17Q, Q18P, L42Q, K44R, K50R, L88V
notes: Human IgG1 / kappa constant regions; also called HO-LA22 / h2-LA22
B4: Humanized LA22 (H2 + h2) (antibody, human IgG1, V domains shown)
VH: B2 VH with S75T, N77K
VL: B1 VL with T7S, S14T, D17Q, Q18P, L42Q, K44R, K50R, L88V
notes: Human IgG1 / kappa constant regions; also called H2-LA22 / h2-LA22
B5: Humanized LA22 (H3 + h2) (antibody, V domains shown)
VH: B2 VH with E23A, A40T, N84S
VL: B1 VL with T7S, S14T, D17Q, Q18P, L42Q, K44R, K50R, L88V
notes: also called hLA22; hLA22 h2H3
B6: Humanized LA22 (H4 + h2) (antibody, human IgG1, V domains shown)
VH: B2 VH with E23A, A40T, G44R, N84S
VL: B1 VL with T7S, S14T, D17Q, Q18P, L42Q, K44R, K50R, L88V
notes: Human IgG1 / kappa constant regions; also called H4-LA22 / h2-LA22

Molecular target: T1, ECD of rec. EGFR (human, UniProt P00533 25-645)
T1 construct: extracellular domain; also called human epidermal factor receptor (EGFR)
Assay: SPR (BIAcore), chip coated with ECD of rec. EGFR
Excerpt: 1. Biacore assay. To test the affinity between human epidermal factor receptor (EGFR) and the present invention of humanized anti-EGFR antibody using BIAcore system which is based on the surface plasmon resonance technique, the chip was coated with ECD of rec. EGFR.

Going from B1 to B2, the Kd rises from 2 nM to 14 nM (7-fold).

B3 and B4 are within 1.5-fold of each other in Kd: 13.2 nM for the first, 12 nM for the second.

First: B5
Second: B6
The Kd of the first is 6.7-fold lower: 2.3 nM for the first, 15.4 nM for the second.

Compared with B1, B2 is 3.4-fold higher in koff: 4.3e-05 s⁻¹ for the first, 0.000146 s⁻¹ for the second.

B3 and B4 are within 1.5-fold of each other in koff: 6.9e-05 s⁻¹ for the first, 7.7e-05 s⁻¹ for the second.

First: B5
Second: B6
The koff of the first is 4.9-fold lower: 3.8e-05 s⁻¹ for the first, 0.000188 s⁻¹ for the second.

First: B1
Second: B2
The kon of the first is 2.1-fold higher: 22000 M⁻¹ s⁻¹ for the first, 10400 M⁻¹ s⁻¹ for the second.

B3 and B4 are within 1.5-fold of each other in kon: 5200 M⁻¹ s⁻¹ for the first, 6400 M⁻¹ s⁻¹ for the second.

B5 and B6 are within 1.5-fold of each other in kon: 16400 M⁻¹ s⁻¹ for the first, 12200 M⁻¹ s⁻¹ for the second.

Molecular target: T2, EGFR on A431 cell surface (human, UniProt P00533 25-1210)
T2 construct: whole, on cells; also called EGFR expressed on A431 cell surface; EGFR on live A431 cell surface
Assay: cell-based ELISA on A431 cells, HRP-conjugated goat anti-human IgG, TMB, OD450
Method: (§1) 3. Cell ELISA assay A431 cells were seeded at 20,000 cells/well of 96-well plate in DMEM-10% FBS and incubated at 37° C. 5% CO₂. 24 hours later, discard the medium. After two washes with PBS and blocking with 5% skim-milk/PBS for 1 h, wells were incubated with different concentration of mLA22 and hLA22 in 5% skim-milk-PBS for another one hour. After two washes with PBS, wells were then incubated with HRP-conjugated goat anti-mouse IgG secondary antibodies or HRP-conjugated goat anti-human IgG secondary antibodies (Jackson Lab) in 5% skim-milk-PBS for 1 h at room temperature. After washes with PBS, HRP substrate 3, 3′, 5, 5′-tetramethylbenzidine (TMB) solution was added. The reaction was stopped with stop solution (0.1M […]) and absorbance was measured at 450 nm with a microplate reader.

For B5, the “EC50 (read off the curve)” value was about 1 µg/mL.

Molecular target: T2, EGFR on A431 cell surface
Assay: cell-based ELISA on A431 cells, HRP-conjugated goat anti-mouse IgG, TMB, OD450
Method: as §1

For B1, the “EC50 (read off the curve)” value was about 1 µg/mL.
